According to patent US20240317845A1 (NINGBO SANSHENG BIOLOGICAL TECHNOLOGY, published 2024):

Tests used:
[1] = target: T1, 6-25 fragment of inhibin α-subunits coupled to chicken ovalbumin (OVA) (porcine (fragment said to be 100% …, UniProt P01012 2-386, chemically coupled to chicken ovalbumin (OVA))); assay: indirect ELISA, plate coated with 6-25 fragment-OVA, culture supernatant, replicate 2
T1 construct: also called antigenic peptide; 6-25 fragment of inhibin a subunits
Description: (§1) The 6-25 fragment of inhibin α-subunits coupled to chicken ovalbumin (OVA) were diluted to a sodium bicarbonate solution having a pH9.6 at a concentration of 10 μg/ml, and 100 μl per well was added to the microtiter plate (96 well plate). The plate was set aside overnight at 2-8° C. overnight, and taken out for washing and then patted dry next day, 5% BSA was added into the plate to block, 200 μl per well, and incubated at 37° C. for 1 h;
(§2) The plate was washed and patted dry. 100 μl of the fused culture supernatant was taken under aseptical conditions, added to the microtiter plate, and incubated at 37° C. for 1 h;
(§3) After washing the plate, chromogenic solution was added into the plate, 100 μl per well, and incubated at 37° C. for 5-10 minutes. 50 μl of stop solution was added into the plate, and the absorbance value was read at a wavelength of 460 nm.

[2] = target: T1, 6-25 fragment of inhibin α-subunits …; assay: indirect ELISA, plate coated with 6-25 fragment-OVA, culture supernatant, replicate 1
Description: as §1, §2, §3

T1 sequence (peptide, as listed by the source limits assumed, chain 1 of 2): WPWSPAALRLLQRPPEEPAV
T1 sequence (P01012 2-386 limits assumed, chain 2 of 2): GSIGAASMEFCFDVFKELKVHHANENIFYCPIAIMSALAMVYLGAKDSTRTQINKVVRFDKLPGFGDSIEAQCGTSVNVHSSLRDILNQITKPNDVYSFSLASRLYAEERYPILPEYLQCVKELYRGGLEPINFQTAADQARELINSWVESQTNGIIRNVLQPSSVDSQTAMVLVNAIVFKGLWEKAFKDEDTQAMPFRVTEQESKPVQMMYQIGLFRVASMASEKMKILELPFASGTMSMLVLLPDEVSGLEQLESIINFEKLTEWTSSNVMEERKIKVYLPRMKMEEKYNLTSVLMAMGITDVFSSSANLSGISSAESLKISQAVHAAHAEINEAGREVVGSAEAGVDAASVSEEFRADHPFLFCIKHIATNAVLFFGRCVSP

absorbance at dilution ratio 200 [1]: 3.25 absorbance
absorbance at dilution ratio 400 [1]: 2.36 absorbance
absorbance at dilution ratio 800 [1]: 2.08 absorbance
absorbance at dilution ratio 1600 [1]: 1.9 absorbance
absorbance at dilution ratio 3200 [1]: 1.43 absorbance
absorbance at dilution ratio 6400 [1]: 0.831 absorbance
absorbance at dilution ratio 12800 [1]: 0.648 absorbance
absorbance at dilution ratio 25600 [1]: 0.398 absorbance
absorbance at dilution ratio 51200 [1]: 0.256 absorbance
absorbance at dilution ratio 102400 [1]: 0.189 absorbance
absorbance at dilution ratio 200 [2]: 3.31 absorbance
absorbance at dilution ratio 400 [2]: 2.8 absorbance
absorbance at dilution ratio 800 [2]: 2.92 absorbance
absorbance at dilution ratio 1600 [2]: 2.28 absorbance
absorbance at dilution ratio 3200 [2]: 1.69 absorbance
absorbance at dilution ratio 6400 [2]: 1.28 absorbance
absorbance at dilution ratio 12800 [2]: 0.823 absorbance
absorbance at dilution ratio 25600 [2]: 0.613 absorbance
absorbance at dilution ratio 51200 [2]: 0.359 absorbance
absorbance at dilution ratio 102400 [2]: 0.263 absorbance
B1: anti-inhibin monoclonal antibody 1E5 secreted by hybridoma cell line 1E57 (antibody, V domains shown)
VH: EVKLVESGPELKKPGETVKISCKASGYTFTDYSMHWVKQAPGKGLKWMGWINTETGEPTYADDFKGRFAFSLETSASTAYLQINNLKNEDTATYFCAYYGPPTYSLDYWGQGASVTVSS
VL: DIQMTQTTSSLSASLGDRVTISCRASQGISNYLNWYQQKPDGTVKLLIYYTSRLLSGVPSRFSGSGSGTDYSLTISNLEQEDIATYFCQQGYTLPFTFGSGTKLEIK
notes: Mouse hybridoma antibody; Tested as culture supernatant, as ascites and as Protein G purified ascites antibody; also called 1E57 culture supernatant; ascites-derived monoclonal antibody 1E5
